In patent US20210002363A1 (PHANES THERAPEUTICS, published 2021):
Where a chain is given by its changes, count along the chain named.

Key:
[1] = target: T1, Recombinant extracellular domain of human FOLR1 (Novoprotein, Cat#: C784) (human, UniProt P15328 25-233, limits assumed); test: ELISA on immobilized FOLR1 extracellular domain; O.D. 450 nm
T1 construct: Bought reagent; also called recombinant FOLR1; immobilized FOLR1 extracellular domain

[2] = target: T1, Recombinant extracellular domain of …; test: ELISA on plate-coated recombinant human FOLR1 extracellular domain; anti-human IgG-HRP; O.D. 450 nm
Procedure: The Purified chimeric mAbs were tested in an ELISA assay for their ability to bind to immobilized human FOLR1. Recombinant extracellular domain of human FOLR1 (Novoprotein, Cat#: C784) in carbonate coating buffer was coated on a 96-well plate at room temperature for 1 hour. The plate is blocked by 5% BSA in TBST for 1 hour at room temperature. In each well of an individual plate, mAbs at various concentrations were incubated for 1 hour at room temperature. The plate was washed and the binding to FOLR1 was detected by anti-human IgG conjugated to horseradish peroxidase (hIgG-HRP) (ThermoFisher Scientific, Cat#: H10007) with incubation for 1 hour at room temperature. Then after washing, the ELISA was developed using One-step Detection Solution (ThermoFisher Scientific, Cat#: 34028) and measured as the absorbance at 450 nm.

[3] = target: T1, Recombinant extracellular domain of …; test: SPR (Biacore 8k), mAb captured on protein A chip, recombinant FOLR1 as analyte, 1:1 model
Procedure: The interaction of the chimeric anti-FOLR1 mAbs and FOLR1 was measured by Surface Plasmon Resonance (SPR) (Biacore 8k, GE Healthcare). Briefly, an anti-FOLR1 mAb was immobilized to a protein A sensor chip (GE Healthcare, Cat#: 29-1275-56) in HBS-P buffer (0.01 M HEPES pH 7.4, 0.15 M NaCl, 0.05% v/v Surfactant P20) with an injection flow rate at […]. The recombinant FOLR1 (Novoprotein, Cat#: C784) at variant concentrations was loaded with the flow rate of 30 μL/min in HBS-P buffer. Following antigen loading, the surface was regenerated with 10 mM glycine-HCl (pH 1.5). Sensor grams were fit with a 1:1 binding model using Biacore 8k evaluation software (GE Healthcare).

[4] = target: T2, FOLR1 on SK-OV-3 cells (ATCC HTB-77) (Homo sapiens (Human), UniProt P15328 25-234); test: FACS on SK-OV-3 cells; Alexa Fluor 488 F(ab')2 goat anti-human IgG Fc; MFI
T2 construct: Endogenous FOLR1 of the cell line; also called cells that are known to express FOLR1
Procedure: To assess the binding of the chimeric anti-FOLR1 mAbs to cells that are known to express FOLR1, SK-OV-3 (ATCC® HTB-77™) cells were plated at 80,000 cells per well on a 96-well non-binding U-bottom plate (Greiner Bio-One, Cat#: 650901). In some experiments, 90,000 cells per well were used. The cells were incubated in 50 μL FACS buffer (HBSS with 0.1% BSA and 0.05% sodium azide) containing mAbs at different concentrations on ice for 15 minutes. After wash, cells were incubated in 50 μL FACS buffer containing 3.5 μg/mL F(ab′)2-Goat anti-Human IgG Fc conjugated to Alexa Fluor® 488 (Invitrogen, Cat#: H10120) on ice for 15 minutes in dark and washed again. Cells were analyzed using an Attune NxT flow cytometer. MFI, mean fluorescence intensity.

[5] = target: T2, FOLR1 on SK-OV-3 cells (ATCC HTB-77); test: FACS on SK-OV-3 cells; MFI
[6] = target: T1, Recombinant extracellular domain of …; test: ELISA on immobilized FOLR1 extracellular domain; O.D. 450 nm; remark: listed apart in the source
[7] = target: T1, Recombinant extracellular domain of …; test: as above; remark: listed apart in the source
[8] = target: T2, FOLR1 on SK-OV-3 cells (ATCC HTB-77); test: FACS on SK-OV-3 cells; MFI; remark: listed apart in the source
[9] = target: T2, FOLR1 on SK-OV-3 cells (ATCC HTB-77); test: FACS on SK-OV-3 cells; MFI; remark: listed apart in the source
[10] = target: T1, Recombinant extracellular domain of …; test: ELISA on immobilized FOLR1 extracellular domain; O.D. 450 nm; remark: listed apart in the source
[11] = target: T1, Recombinant extracellular domain of …; test: as above; remark: listed apart in the source
[12] = target: T1, Recombinant extracellular domain of …; test: as above; remark: listed apart in the source
[13] = target: T1, Recombinant extracellular domain of …; test: as above; remark: listed apart in the source

T2 sequence (P15328 25-234 limits assumed): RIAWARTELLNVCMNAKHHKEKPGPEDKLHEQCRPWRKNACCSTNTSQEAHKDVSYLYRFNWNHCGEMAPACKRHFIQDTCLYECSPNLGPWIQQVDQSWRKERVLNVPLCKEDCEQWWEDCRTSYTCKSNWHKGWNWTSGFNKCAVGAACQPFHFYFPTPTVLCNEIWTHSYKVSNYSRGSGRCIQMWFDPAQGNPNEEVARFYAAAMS
T1 sequence (P15328 25-233 limits assumed): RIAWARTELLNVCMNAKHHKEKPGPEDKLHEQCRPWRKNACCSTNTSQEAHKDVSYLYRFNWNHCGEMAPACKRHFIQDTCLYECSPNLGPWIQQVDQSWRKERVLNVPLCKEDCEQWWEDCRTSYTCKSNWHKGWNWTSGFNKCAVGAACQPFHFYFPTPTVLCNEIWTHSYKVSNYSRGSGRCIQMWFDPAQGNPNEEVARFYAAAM

B1: chimeric anti-FOLR1 mAb F10 (antibody, V domains shown)
VH: QVQLQQSGPELVKPGASVKISCKASGYAFSSSWMNWVRQRPGKGLEWIGRIYPGDGYTHYNGMFKGKATLTADKSSSTGYMQLSSLTSEDSAVYFCTRHGDFPYWYFDVWGTGTTVTVSS
VL: DIQMTQSPASLSASVGESVTITCRASENIDSYLAWYQQKQGKSPQLLVYAATNLAVGVPSRFSGSGSGTQYTLKINSLQSEDVARYYCQHHYSTPPTFGGGTKLEIK
notes: also called Chimeric mAb F10
EC50 (read off the curve) [1]: ~0.2 nM
EC50 (read off the curve) [2]: ~0.2 nM
Kd [3]: 0.704 nM
EC50 (read off the curve) [4]: ~0.9 nM

B2: F20-H2L2 (antibody, V domains shown)
VH: QVQLVQSGAEVKKPGSSVKVSCKASGYTFASYYLYWVRQAPGQGLEWIGEINPRSGGTNFNEKFKSRATVTVDASTSTAYMELSSLRSEDTAVYYCSRSGRLRGFYTMDYWGQGTLVTVSS
VL: DIVMTQSPDSLAVSLGERATINCKAGENVGSYVSWYQQKPGQSPKLLIYGASNRYTGVPDRFSGSGSATDFTLTISSLQAEDVAVYYCGQTYRFLTFGQGTKVEIK
notes: also called humanized F20 mAb H2L2
binding result [5]: binds
binding result [6]: binds

B3: F20-H2L3 (antibody, V domains shown)
VH: B2 VH
VL: DIQMTQSPSTLSASVGDRVTITCKAGENVGSYVSWYQQKPGKAPKLLIYGASNRYTGVPARFSGSGSATEFTLTISSLQPDDFATYYCGQTYRFLTFGQGTKVEVK
notes: also called humanized F20 mAb H2L3
EC50 (read off the curve) [6]: ~0.3 nM

B4: F20-H3L4 (antibody, V domains shown)
VH: B2 VH with R67K, A74K, S77N
VL: B3 VL with D81E
notes: also called humanized F20 mAb H3L4
EC50 (read off the curve) [7]: ~0.3 nM
EC50 (read off the curve) [8]: ~1 nM

B5: F20-H1L4 (antibody, V domains shown)
VH: B2 VH with A74K
VL: B3 VL with D81E
notes: also called humanized F20 mAb H1L4
EC50 (read off the curve) [7]: ~0.3 nM

B6: F20-H2L1 (antibody, V domains shown)
VH: B2 VH
VL: B2 VL with S43P
notes: also called humanized F20 mAb H2L1
binding result [5]: binds
binding result [6]: binds

B7: F10-H1L3 (antibody, V domains shown)
VH: EVQLVQSGAEVKKPGSSVKVSCKASGYAFSSSWMNWVRQAPGQGLEWIGRIYPGDGYTHYNGMFKGRASLTADKSTSTGYMELSSLRSEDTAVFFCTRHGDFPYWYFDVWGRGTLVTVSP
VL: DIQMTQSPSTLSASVGDRVTITCRASENIDSYLAWYQQKPGRAPKLLVYAATNLAVGVPSRFSGSGSGTEYTLTISSLQSEDFATYYCQHHYSTPPTFGQGTKLEIK
notes: also called humanized F10 mAb H1L3
EC50 (read off the curve) [9]: ~3 nM

B8: F17-H1L1 (antibody, V domains shown)
VH: EVQLVETGGGLIQPGGSLRLSCAASGFTFSDFGMHWIRQAPGKGLEWVAYMSYTPGTFHYADTVKDRFTISRDNSKNTLYLQMNSLRAEDTAVYYCARVHVGTVDYWGQGTLVTVSS
VL: EVVLTQSPATLSLSPGERATLSCRASQNINNNLHWFQQKPGQAPRLLIKYASQSISGIPARFSGSGSGTDFTLTISSLEPEDFAVYFCQQSNSWPALTFGQGTKVEIK
notes: also called humanized F17 mAb H1L1
EC50 (read off the curve) [10]: 0.1 to 0.2 nM

B9: chimeric anti-FOLR1 mAb F5 (antibody, V domains shown)
VH: EVQLVESGGELVKPGGSLKLSCAVSGFTFSNYGMSWVRQTPDKRLEWVATISSGGSYTYYPDSVKGRFTISRDNDKNTLYLQMSSLKSEDTAMYYCSTQGSSGYVGYWGQGTTLTVSS
VL: DIQMTQSPSSLSAFLGGKVTITCKASQDITNFIGWYQHKPGKGPRLLISYTSILESGIPSRFSGSGSGRDYSFSISNLEPEDIATYYCLQYYNLWTFGGGTKLEIK
notes: also called Chimeric mAb F5
EC50 (read off the curve) [11]: 0.2 to 0.3 nM
EC50 (read off the curve) [2]: ~0.1 nM
Kd [3]: 0.352 nM
EC50 (read off the curve) [4]: ~0.4 nM
EC50 (read off the curve) [12]: 0.1 to 0.2 nM

B10: F5-H1L1 (antibody, V domains shown)
VH: EVQLLESGGGLVQPGGSLRLSCAVSGFTFSNYGMSWVRQAPGKGLEWVATISSGGSYTYYPDSVKGRFTISRDNSKNTLYLQMNSLRAEDTAVYYCSTQGSSGYVGYWGQGTLVTVSS
VL: DIQMTQSPSSVSASVGDRVTITCKASQDITNFIGWYQHKPGKAPKLLISYTSILESGVPSRFSGSGSGRDYTLTISSLQPEDFATYYCLQYYNLWTFGGGTKVEIK
notes: also called humanized F5 mAb H1L1
EC50 (read off the curve) [12]: ~0.4 nM

B11: F5-H4L1 (antibody, V domains shown)
VH: B10 VH with L5V, S75D, N84S
VL: B10 VL
notes: also called humanized F5 mAb H4L1
EC50 (read off the curve) [13]: ~0.4 nM

B12: F5-H4L2 (antibody, V domains shown)
VH: B10 VH with L5V, S75D, N84S
VL: B10 VL with R69T
notes: also called humanized F5 mAb H4L2
EC50 (read off the curve) [13]: ~0.4 nM
